Measured values reported in article PMC9122904, “Insights into the client protein release mechanism of the ATP-independent chaperone Spy” (Nature Communications, 2022).

Columns and labels:
Test in all cases: BLI; Octet RED96; client biotinylated and loaded on streptavidin sensors; Spy or Spy variant in solution at 0.25, 0.5, 1, 1.5 and 2 μM; 40 mM HEPES, 150 mM NaCl, pH 7.5; Kd calculated as koff/kon
Conditions in all cases: both partners purified
Spy_(27-130) = target: T1, Spy_(27-130) (UniProt P77754 50-153)
T1 construct: Spy chaperone, residues 27-130; source: E. coli BL21 (DE3), purified (Ni-NTA, cation exchange, SEC); not shown: His6, N-terminal, cleaved; SUMO, N-terminal, cleaved
T1 sequence (looked up): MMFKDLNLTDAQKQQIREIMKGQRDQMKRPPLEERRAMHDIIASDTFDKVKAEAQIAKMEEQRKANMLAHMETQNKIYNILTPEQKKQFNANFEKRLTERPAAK
Procedure, shortened: (§1)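 Biolayer interferometry used an Octet RED96: client proteins biotinylated with EZ-link NHS-biotin (1:1 molar ratio) were loaded on streptavidin sensors, dipped into 40 mM HEPES, 150 mM NaCl, pH 7.5 containing Spy protein at 0.25, 0.5, 1, 1.5 and 2 μM, then moved to Spy-free buffer. Wavelength-shift association and dissociation curves were fitted in SigmaPlot 12.0, giving observed association rate and koff. kon came from observed rate versus Spy concentration; Kd was koff/kon.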

Spy_(21-130) = target: T2, Spy_(21-130) (UniProt P77754 44-153)
T2 construct: Spy chaperone, residues 21-130; source: E. coli BL21 (DE3), purified (Ni-NTA, cation exchange, SEC); not shown: His6, N-terminal, cleaved; SUMO, N-terminal, cleaved
T2 sequence (looked up): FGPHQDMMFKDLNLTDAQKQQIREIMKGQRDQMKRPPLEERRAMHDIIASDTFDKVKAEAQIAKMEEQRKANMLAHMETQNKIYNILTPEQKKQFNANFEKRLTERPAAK
Procedure, shortened: as §1

Spy_(21-124) = target: T3, Spy_(21-124) (UniProt P77754 44-147)
T3 construct: source: E. coli BL21 (DE3), purified (Ni-NTA, cation exchange, SEC); not shown: His6, N-terminal, cleaved; SUMO, N-terminal, cleaved
T3 sequence (looked up): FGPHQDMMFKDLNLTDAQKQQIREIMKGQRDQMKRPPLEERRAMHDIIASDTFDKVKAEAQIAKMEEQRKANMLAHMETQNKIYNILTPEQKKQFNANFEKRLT
Procedure, shortened: as §1

Spy_(24-130) = target: T4, Spy_(24-130) (UniProt P77754 47-153)
T4 construct: Spy chaperone, residues 24-130; source: E. coli BL21 (DE3), purified (Ni-NTA, cation exchange, SEC); not shown: His6, N-terminal, cleaved; SUMO, N-terminal, cleaved
T4 sequence (looked up): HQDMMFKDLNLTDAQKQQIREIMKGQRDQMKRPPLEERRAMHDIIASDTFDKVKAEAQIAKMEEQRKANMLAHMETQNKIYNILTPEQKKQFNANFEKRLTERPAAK
Procedure, shortened: as §1

Spy_(29-138) = target: T5, Spy_(29-138) (UniProt P77754 52-161)
T5 construct: source: E. coli BL21 (DE3), purified (Ni-NTA, cation exchange, SEC); not shown: His6, N-terminal, cleaved; SUMO, N-terminal, cleaved
T5 sequence (looked up): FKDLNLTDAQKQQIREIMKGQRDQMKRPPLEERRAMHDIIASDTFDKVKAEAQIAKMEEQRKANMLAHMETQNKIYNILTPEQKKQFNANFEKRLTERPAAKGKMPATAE
Procedure, shortened: as §1

Spy_(1-124) = target: T6, Spy_(1-124) (UniProt P77754 24-147)
T6 construct: source: E. coli BL21 (DE3), purified (Ni-NTA, cation exchange, SEC); not shown: His6, N-terminal, cleaved; SUMO, N-terminal, cleaved
T6 sequence (looked up): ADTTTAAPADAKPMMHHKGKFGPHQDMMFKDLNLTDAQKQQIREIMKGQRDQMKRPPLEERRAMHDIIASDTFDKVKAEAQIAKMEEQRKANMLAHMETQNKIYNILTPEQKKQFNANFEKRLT
Procedure, shortened: as §1

Spy_(24-127) = target: T7, Spy_(24-127) (UniProt P77754 47-150)
T7 construct: Spy chaperone, residues 24-127; source: E. coli BL21 (DE3), purified (Ni-NTA, cation exchange, SEC); not shown: His6, N-terminal, cleaved; SUMO, N-terminal, cleaved
T7 sequence (looked up): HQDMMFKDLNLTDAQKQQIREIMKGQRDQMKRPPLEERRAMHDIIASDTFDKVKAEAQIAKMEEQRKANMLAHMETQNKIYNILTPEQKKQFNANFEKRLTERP
Procedure, shortened: as §1

[1] = target: T8, Spy wild type (Spy_(1-138)) (UniProt P77754 24-161)
T8 construct: Spy, ATP-independent periplasmic chaperone; also called WT; wt; source: E. coli BL21 (DE3), purified (Ni-NTA, cation exchange, SEC); not shown: His6, N-terminal, cleaved; SUMO, N-terminal, cleaved
T8 sequence (looked up): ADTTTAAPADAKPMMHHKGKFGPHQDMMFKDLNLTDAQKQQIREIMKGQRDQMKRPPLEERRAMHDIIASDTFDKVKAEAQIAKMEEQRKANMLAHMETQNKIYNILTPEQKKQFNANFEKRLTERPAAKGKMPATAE
Procedure, shortened: as §1

koff (Spy_(27-130)): 0.092 s⁻¹
koff (Spy_(21-130)): 0.461 s⁻¹
koff (Spy_(21-124)): 0.487 s⁻¹
koff (Spy_(24-130)): 0.3 s⁻¹
koff (Spy_(29-138)): 0.0893 s⁻¹
koff (Spy_(1-124)): 0.188 s⁻¹
koff (Spy_(24-127)): 0.39 s⁻¹
koff [1]: 0.179 s⁻¹
B1: Im7 H40W L53A I54A (natural protein)
chain: MELKNSISDYTEAEFVQLLKEIEKENVAATDDVLDVLLEWFVKITEHPDGTDAAYYPSDNRDDSPEGIVKEIKEWRAANGKPGFKQG
modifications: biotin (EZ-link NHS-biotin, 1:1 molar ratio of biotin to protein)
notes: Im7 (colicin E7 immunity protein) with H40W L53A I54A; Spy was made with an N-terminal His6-SUMO tag that was cleaved; also called Im7AAW; partially folded client; source: purified by a similar procedure to Spy
